Test results reported in patent publication US20220040297A1 (Chugai, published 2022).

target: T1, CD3ε homodimer protein (human, UniProt P07766 23-126, limits assumed, sulfo-tag or biotin label in some ECL assays); assay: SPR, CD3ε homodimer on chip;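 note: biacore SPR with antibody variants flowed as analyte over amine-coupled CD3ε homodimer on a CM chip, bound amount of each single-residue H chain variant over that of parent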
T1 construct: also called human CD3ε homodimer protein; CD3 (CD3ε)
T1 sequence (P07766 23-126 limits assumed): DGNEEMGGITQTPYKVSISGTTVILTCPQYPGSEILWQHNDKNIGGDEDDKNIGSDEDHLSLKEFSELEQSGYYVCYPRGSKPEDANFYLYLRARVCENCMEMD

Binder | ratio of amounts bound vs CE115HA000
CE115HA000 D101A (antibody, name in Kabat numbering, V domains shown) VH: QVQLVESGGGVVQPGRSLRLSCAASGFTFSNAWMHWVRQAPGKGLEWVAQIKAKSNNYATYYAESVKGRFTISRDDSKNSLYLQMNSLKTEDTAVYYCRYVHYGAYYGVAAWGQGTTVTVSS VL: DIVMTQSPLSLPVTPGEPASISCRSSQSLVHSNRNTYLHWYQQKPGQAPRLLIYKVSNRFSGVPDRFSGSGSGTDFTLKISRVEAEDVGVYYCGQGTQVPYTFGQGTKLEIK | 1.26
CE115HA000 G65E (antibody, name in Kabat numbering, V domains shown) VH: QVQLVESGGGVVQPGRSLRLSCAASGFTFSNAWMHWVRQAPGKGLEWVAQIKAKSNNYATYYAESVKERFTISRDDSKNSLYLQMNSLKTEDTAVYYCRYVHYGAYYGVDAWGQGTTVTVSS VL: DIVMTQSPLSLPVTPGEPASISCRSSQSLVHSNRNTYLHWYQQKPGQAPRLLIYKVSNRFSGVPDRFSGSGSGTDFTLKISRVEAEDVGVYYCGQGTQVPYTFGQGTKLEIK | 0.78
CE115HA000 E61A (antibody, name in Kabat numbering, V domains shown) VH: QVQLVESGGGVVQPGRSLRLSCAASGFTFSNAWMHWVRQAPGKGLEWVAQIKAKSNNYATYYAASVKGRFTISRDDSKNSLYLQMNSLKTEDTAVYYCRYVHYGAYYGVDAWGQGTTVTVSS VL: DIVMTQSPLSLPVTPGEPASISCRSSQSLVHSNRNTYLHWYQQKPGQAPRLLIYKVSNRFSGVPDRFSGSGSGTDFTLKISRVEAEDVGVYYCGQGTQVPYTFGQGTKLEIK | 1.09
CE115HA000 G98D (antibody, name in Kabat numbering, V domains shown) VH: QVQLVESGGGVVQPGRSLRLSCAASGFTFSNAWMHWVRQAPGKGLEWVAQIKAKSNNYATYYAESVKGRFTISRDDSKNSLYLQMNSLKTEDTAVYYCRYVHYDAYYGVDAWGQGTTVTVSS VL: DIVMTQSPLSLPVTPGEPASISCRSSQSLVHSNRNTYLHWYQQKPGQAPRLLIYKVSNRFSGVPDRFSGSGSGTDFTLKISRVEAEDVGVYYCGQGTQVPYTFGQGTKLEIK | 0.26
CE115HA000 D101I (antibody, name in Kabat numbering, V domains shown) VH: QVQLVESGGGVVQPGRSLRLSCAASGFTFSNAWMHWVRQAPGKGLEWVAQIKAKSNNYATYYAESVKGRFTISRDDSKNSLYLQMNSLKTEDTAVYYCRYVHYGAYYGVIAWGQGTTVTVSS VL: DIVMTQSPLSLPVTPGEPASISCRSSQSLVHSNRNTYLHWYQQKPGQAPRLLIYKVSNRFSGVPDRFSGSGSGTDFTLKISRVEAEDVGVYYCGQGTQVPYTFGQGTKLEIK | 1.18
CE115HA000 G98A (antibody, name in Kabat numbering, V domains shown) VH: QVQLVESGGGVVQPGRSLRLSCAASGFTFSNAWMHWVRQAPGKGLEWVAQIKAKSNNYATYYAESVKGRFTISRDDSKNSLYLQMNSLKTEDTAVYYCRYVHYAAYYGVDAWGQGTTVTVSS VL: DIVMTQSPLSLPVTPGEPASISCRSSQSLVHSNRNTYLHWYQQKPGQAPRLLIYKVSNRFSGVPDRFSGSGSGTDFTLKISRVEAEDVGVYYCGQGTQVPYTFGQGTKLEIK | 1.1
CE115HA000 G98P (antibody, name in Kabat numbering, V domains shown) VH: QVQLVESGGGVVQPGRSLRLSCAASGFTFSNAWMHWVRQAPGKGLEWVAQIKAKSNNYATYYAESVKGRFTISRDDSKNSLYLQMNSLKTEDTAVYYCRYVHYPAYYGVDAWGQGTTVTVSS VL: DIVMTQSPLSLPVTPGEPASISCRSSQSLVHSNRNTYLHWYQQKPGQAPRLLIYKVSNRFSGVPDRFSGSGSGTDFTLKISRVEAEDVGVYYCGQGTQVPYTFGQGTKLEIK | 1.03
CE115HA000 D101M (antibody, name in Kabat numbering, V domains shown) VH: QVQLVESGGGVVQPGRSLRLSCAASGFTFSNAWMHWVRQAPGKGLEWVAQIKAKSNNYATYYAESVKGRFTISRDDSKNSLYLQMNSLKTEDTAVYYCRYVHYGAYYGVMAWGQGTTVTVSS VL: DIVMTQSPLSLPVTPGEPASISCRSSQSLVHSNRNTYLHWYQQKPGQAPRLLIYKVSNRFSGVPDRFSGSGSGTDFTLKISRVEAEDVGVYYCGQGTQVPYTFGQGTKLEIK | 1.2
CE115HA000 D101Q (antibody, name in Kabat numbering, V domains shown) VH: QVQLVESGGGVVQPGRSLRLSCAASGFTFSNAWMHWVRQAPGKGLEWVAQIKAKSNNYATYYAESVKGRFTISRDDSKNSLYLQMNSLKTEDTAVYYCRYVHYGAYYGVQAWGQGTTVTVSS VL: DIVMTQSPLSLPVTPGEPASISCRSSQSLVHSNRNTYLHWYQQKPGQAPRLLIYKVSNRFSGVPDRFSGSGSGTDFTLKISRVEAEDVGVYYCGQGTQVPYTFGQGTKLEIK | 2.25
CE115HA000 E61D (antibody, name in Kabat numbering, V domains shown) VH: QVQLVESGGGVVQPGRSLRLSCAASGFTFSNAWMHWVRQAPGKGLEWVAQIKAKSNNYATYYADSVKGRFTISRDDSKNSLYLQMNSLKTEDTAVYYCRYVHYGAYYGVDAWGQGTTVTVSS VL: DIVMTQSPLSLPVTPGEPASISCRSSQSLVHSNRNTYLHWYQQKPGQAPRLLIYKVSNRFSGVPDRFSGSGSGTDFTLKISRVEAEDVGVYYCGQGTQVPYTFGQGTKLEIK | 0.91
CE115HA000 G98H (antibody, name in Kabat numbering, V domains shown) VH: QVQLVESGGGVVQPGRSLRLSCAASGFTFSNAWMHWVRQAPGKGLEWVAQIKAKSNNYATYYAESVKGRFTISRDDSKNSLYLQMNSLKTEDTAVYYCRYVHYHAYYGVDAWGQGTTVTVSS VL: DIVMTQSPLSLPVTPGEPASISCRSSQSLVHSNRNTYLHWYQQKPGQAPRLLIYKVSNRFSGVPDRFSGSGSGTDFTLKISRVEAEDVGVYYCGQGTQVPYTFGQGTKLEIK | 2.83
CE115HA000 E61P (antibody, name in Kabat numbering, V domains shown) VH: QVQLVESGGGVVQPGRSLRLSCAASGFTFSNAWMHWVRQAPGKGLEWVAQIKAKSNNYATYYAPSVKGRFTISRDDSKNSLYLQMNSLKTEDTAVYYCRYVHYGAYYGVDAWGQGTTVTVSS VL: DIVMTQSPLSLPVTPGEPASISCRSSQSLVHSNRNTYLHWYQQKPGQAPRLLIYKVSNRFSGVPDRFSGSGSGTDFTLKISRVEAEDVGVYYCGQGTQVPYTFGQGTKLEIK | 1.07
CE115HA000 G98F (antibody, name in Kabat numbering, V domains shown) VH: QVQLVESGGGVVQPGRSLRLSCAASGFTFSNAWMHWVRQAPGKGLEWVAQIKAKSNNYATYYAESVKGRFTISRDDSKNSLYLQMNSLKTEDTAVYYCRYVHYFAYYGVDAWGQGTTVTVSS VL: DIVMTQSPLSLPVTPGEPASISCRSSQSLVHSNRNTYLHWYQQKPGQAPRLLIYKVSNRFSGVPDRFSGSGSGTDFTLKISRVEAEDVGVYYCGQGTQVPYTFGQGTKLEIK | 1.58
CE115HA000 D101Y (antibody, name in Kabat numbering, V domains shown) VH: QVQLVESGGGVVQPGRSLRLSCAASGFTFSNAWMHWVRQAPGKGLEWVAQIKAKSNNYATYYAESVKGRFTISRDDSKNSLYLQMNSLKTEDTAVYYCRYVHYGAYYGVYAWGQGTTVTVSS VL: DIVMTQSPLSLPVTPGEPASISCRSSQSLVHSNRNTYLHWYQQKPGQAPRLLIYKVSNRFSGVPDRFSGSGSGTDFTLKISRVEAEDVGVYYCGQGTQVPYTFGQGTKLEIK | 6.49
CE115HA000 D101T (antibody, name in Kabat numbering, V domains shown) VH: QVQLVESGGGVVQPGRSLRLSCAASGFTFSNAWMHWVRQAPGKGLEWVAQIKAKSNNYATYYAESVKGRFTISRDDSKNSLYLQMNSLKTEDTAVYYCRYVHYGAYYGVTAWGQGTTVTVSS VL: DIVMTQSPLSLPVTPGEPASISCRSSQSLVHSNRNTYLHWYQQKPGQAPRLLIYKVSNRFSGVPDRFSGSGSGTDFTLKISRVEAEDVGVYYCGQGTQVPYTFGQGTKLEIK | 0.79
CE115HA000 G65D (antibody, name in Kabat numbering, V domains shown) VH: QVQLVESGGGVVQPGRSLRLSCAASGFTFSNAWMHWVRQAPGKGLEWVAQIKAKSNNYATYYAESVKDRFTISRDDSKNSLYLQMNSLKTEDTAVYYCRYVHYGAYYGVDAWGQGTTVTVSS VL: DIVMTQSPLSLPVTPGEPASISCRSSQSLVHSNRNTYLHWYQQKPGQAPRLLIYKVSNRFSGVPDRFSGSGSGTDFTLKISRVEAEDVGVYYCGQGTQVPYTFGQGTKLEIK | 0.76
CE115HA000 D101V (antibody, name in Kabat numbering, V domains shown) VH: QVQLVESGGGVVQPGRSLRLSCAASGFTFSNAWMHWVRQAPGKGLEWVAQIKAKSNNYATYYAESVKGRFTISRDDSKNSLYLQMNSLKTEDTAVYYCRYVHYGAYYGVVAWGQGTTVTVSS VL: DIVMTQSPLSLPVTPGEPASISCRSSQSLVHSNRNTYLHWYQQKPGQAPRLLIYKVSNRFSGVPDRFSGSGSGTDFTLKISRVEAEDVGVYYCGQGTQVPYTFGQGTKLEIK | 1.33
CE115HA000 D101G (antibody, name in Kabat numbering, V domains shown) VH: QVQLVESGGGVVQPGRSLRLSCAASGFTFSNAWMHWVRQAPGKGLEWVAQIKAKSNNYATYYAESVKGRFTISRDDSKNSLYLQMNSLKTEDTAVYYCRYVHYGAYYGVGAWGQGTTVTVSS VL: DIVMTQSPLSLPVTPGEPASISCRSSQSLVHSNRNTYLHWYQQKPGQAPRLLIYKVSNRFSGVPDRFSGSGSGTDFTLKISRVEAEDVGVYYCGQGTQVPYTFGQGTKLEIK | 1.38
CE115HA000 E61Q (antibody, name in Kabat numbering, V domains shown) VH: QVQLVESGGGVVQPGRSLRLSCAASGFTFSNAWMHWVRQAPGKGLEWVAQIKAKSNNYATYYAQSVKGRFTISRDDSKNSLYLQMNSLKTEDTAVYYCRYVHYGAYYGVDAWGQGTTVTVSS VL: DIVMTQSPLSLPVTPGEPASISCRSSQSLVHSNRNTYLHWYQQKPGQAPRLLIYKVSNRFSGVPDRFSGSGSGTDFTLKISRVEAEDVGVYYCGQGTQVPYTFGQGTKLEIK | 1.07
CE115HA000 D101P (antibody, name in Kabat numbering, V domains shown) VH: QVQLVESGGGVVQPGRSLRLSCAASGFTFSNAWMHWVRQAPGKGLEWVAQIKAKSNNYATYYAESVKGRFTISRDDSKNSLYLQMNSLKTEDTAVYYCRYVHYGAYYGVPAWGQGTTVTVSS VL: DIVMTQSPLSLPVTPGEPASISCRSSQSLVHSNRNTYLHWYQQKPGQAPRLLIYKVSNRFSGVPDRFSGSGSGTDFTLKISRVEAEDVGVYYCGQGTQVPYTFGQGTKLEIK | 0.2
